# Results from patent publication US8993717B2, “Gadd45beta targeting agents” (Imperial Innovations Limited, priority 2009, dated 2015).
# Square brackets hold non-standard residues; d marks the D form. Primed or numbered codes have the meaning given here. Peptide text beside a SMILES is read from it. * marks the point of attachment. Fmoc = O=C(OCC1c2ccccc2-c2ccccc21)*; Myristoyl = CCCCCCCCCCCCCC(=O)*; NHPhenethyl = c1ccc(CCN*)cc1; OMe′ = Asp methyl ester; Cbz = O=C(OCc1ccccc1)*; NHBn = c1ccc(CN*)cc1; Bz = O=C(c1ccccc1)*; NHPh = c1ccc(N*)cc1; βAla = NCCC(=O)O
# Test system: KMS11 multiple myeloma cells
# Test: [3H]thymidine incorporation assay in KMS11
# Format: cell-based, human
# Details: not given
# Experimental: Cultures of multiple myeloma cells and treatments with Z-DTPs were carried out as described in Example 8 (see below). The effects of Z-DTPs on the survival/proliferation of multiple myeloma cells were evaluated by the use of [^3H]thymidine) incorporation assays, performed as also described in Example 8. The amount of cell proliferation measured with each of the Z-DTPs' concentrations used and with the untreated cultures (i.e. cultures incubated with medium alone), was expressed as counts per minute (c.p.m.)—which directly correlate with the extent of cell proliferation. All experiments were performed in triplicate.
# In these latter assays, the effects of Z-DTPs, Ac-DTPs and Z-LTPs on the survival/proliferation of tumour cell lines was investigated by measuring DNA synthesis using standard tritiated thymidine ([^3H]thymidine; [^3H]-TdR) uptake assays. In the analyses shown, cells were incubated for 24, 72, 120 or 144 hrs at 37° C. in the presence or absence of control or bioactive tetrapeptides, as indicated, then subjected to an additional incubation for 18 hrs with [^3H]-TdR (0.037 MBq/well, equivalent to […]). Cells were subsequently harvested onto glass fibre filter mats using a 96-well plate automated cell harvester, after which scintillation fluid was added, and [^3H]thymidine incorporation measured by liquid scintillation spectroscopy on a beta counter. The results are expressed as the percentages of the counts per minute (c.p.m.) (directly correlating with the extent of cell proliferation) measured with tetrapeptide-treated cultures relative to the c.p.m. measured with the corresponding cultures incubated with medium alone (untreated cells). All experiments were performed in triplicate.
row,Compound,IC50 [µM]
1,"N=C(N)NCCC[C@@H](NC(=O)[C@@H](CCC(=O)O)NC(=O)c1ccccc1)C(=O)Nc1ccccc1 [Compound 10, X1-Glu-Arg-Y1] (Bz-[dE]-[dR]-NHPh)",> 10
2,"N=C(N)NCCC[C@@H](NC(=O)[C@@H](CCC(=O)O)NC(=O)c1ccccc1)C(=O)NCc1ccccc1 [Compound 11, X1-Glu-Arg-Y2] (Bz-[dE]-[dR]-NHBn)",> 10
3,"N=C(N)NCCC[C@@H](NC(=O)[C@@H](CCC(=O)O)NC(=O)c1ccccc1)C(=O)NCCc1ccccc1 [Compound 12, X1-Glu-Arg-Y3] (Bz-[dE]-[dR]-NHPhenethyl)",> 10
4,"N=C(N)NCCC[C@@H](NC(=O)[C@@H](CCC(=O)O)NC(=O)c1ccc(O)cc1)C(=O)Nc1ccccc1 [Compound 13, X2-Glu-Arg-Y1]",> 10
5,"N=C(N)NCCC[C@@H](NC(=O)[C@@H](CCC(=O)O)NC(=O)c1ccc(O)cc1)C(=O)NCc1ccccc1 [Compound 14, X2-Glu-Arg-Y2]",> 10

# Same assay, conditions: Day 1; read-out: IC50 [H^3] thymidine incorporation assay in KMS11
row,Compound,IC50 [µM]
1,N=C(N)NCCC[C@@H](NC(=O)[C@@H](CC(N)=O)NC(=O)[C@@H](Cc1ccc(O)cc1)NC(=O)OCc1ccccc1)C(=O)N[C@H](Cc1ccccc1)C(N)=O [Z-Tyr-Asn-Arg-Phe-NH2] (Cbz-[dY][dN][dR][dF]-NH2),> 10
2,NC(=O)C[C@@H](NC(=O)[C@@H](Cc1ccc(O)cc1)NC(=O)OCc1ccccc1)C(=O)N[C@H](Cc1ccccc1)C(N)=O [Z-Tyr-Asn-Phe-NH2] (Cbz-[dY]-[dN]-[dF]-NH2),> 10

# Same assay, conditions: Day 3; read-out: IC50 [H^3] thymidine incorporation assay in KMS11
row,Compound,IC50 [µM]
1,N=C(N)NCCC[C@@H](NC(=O)[C@@H](CC(N)=O)NC(=O)[C@@H](Cc1ccc(O)cc1)NC(=O)OCc1ccccc1)C(=O)N[C@H](Cc1ccccc1)C(N)=O [Z-Tyr-Asn-Arg-Phe-NH2] (Cbz-[dY][dN][dR][dF]-NH2),> 10
2,NC(=O)C[C@@H](NC(=O)[C@@H](Cc1ccc(O)cc1)NC(=O)OCc1ccccc1)C(=O)N[C@H](Cc1ccccc1)C(N)=O [Z-Tyr-Asn-Phe-NH2] (Cbz-[dY]-[dN]-[dF]-NH2),> 10

# Same assay, conditions: Day 6; read-out: IC50 [H^3] thymidine incorporation assay in KMS11
row,Compound,IC50 [µM]
1,N=C(N)NCCC[C@@H](NC(=O)[C@@H](CC(N)=O)NC(=O)[C@@H](Cc1ccc(O)cc1)NC(=O)OCc1ccccc1)C(=O)N[C@H](Cc1ccccc1)C(N)=O [Z-Tyr-Asn-Arg-Phe-NH2] (Cbz-[dY][dN][dR][dF]-NH2),> 10
2,NC(=O)C[C@@H](NC(=O)[C@@H](Cc1ccc(O)cc1)NC(=O)OCc1ccccc1)C(=O)N[C@H](Cc1ccccc1)C(N)=O [Z-Tyr-Asn-Phe-NH2] (Cbz-[dY]-[dN]-[dF]-NH2),> 10

# Biological target: T1, Gadd45β/MKK7 interaction (Homo sapiens, UniProt O14733)
# T1 construct: The GST-fused full-length kinase was coated for 16 h at 4° C., at a concentration of 42 nM; made in house
# T1 sequence (O14733 1-419): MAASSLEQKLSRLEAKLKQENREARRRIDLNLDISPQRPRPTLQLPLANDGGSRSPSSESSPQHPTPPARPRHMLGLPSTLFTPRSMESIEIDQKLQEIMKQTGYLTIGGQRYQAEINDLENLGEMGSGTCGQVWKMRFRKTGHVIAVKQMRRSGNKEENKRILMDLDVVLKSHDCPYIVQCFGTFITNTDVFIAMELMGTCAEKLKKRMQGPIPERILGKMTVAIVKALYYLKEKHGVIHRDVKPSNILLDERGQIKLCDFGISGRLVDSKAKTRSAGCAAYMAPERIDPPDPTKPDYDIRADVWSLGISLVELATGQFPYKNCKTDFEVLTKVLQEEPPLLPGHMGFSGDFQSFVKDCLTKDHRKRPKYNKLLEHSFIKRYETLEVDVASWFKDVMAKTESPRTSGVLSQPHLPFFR
# Test: ELISA competition assay of biotin-hGadd45β binding to coated GST-MKK7
# Details: Table I, initial Elisa screening; coated MKK7 42 nM, biotin-hGadd45β 21 nM; competitor 21 nM, sub-libraries 42 nM
# Experimental: To evaluate the inhibitory properties of peptides, ELISA-based assays were performed. In these assays, a fusion protein of glutathione S-transferase (GST) and mitogen-activated protein kinase kinase 7 (MKK7) was coated onto wells of a 96-well plate, while biotinylated-hGadd45β was used in solution. hGadd45β was biotinylated using an EZ Link NHS-LC-biotin kit (Pierce, Rockford, Ill.), according to Tornatore et al. (Tornatore L., et al. (2008). J Mol Biol; 378:97-111).
# Firstly, the association between Gadd45β and MKK7 was investigated by ELISA assays as also reported in Tornatore et al. (Tornatore L., et al. (2008). J Mol Biol; 378:97-111). The GST-fused full-length kinase was coated for 16 h at 4° C., at a concentration of 42 nM in buffer A (25 mM Tris pH 7.5, 150 mM NaCl, 1 mM DTT and 1 mM EDTA) into wells of a 96-well microliter plate. Some wells were filled with buffer alone and were used as blanks. After incubation for 16 h at 4° C., the solutions were removed and the wells were filled with 350 μL of a 1% (w/v) solution of NFDM (Non Fat Dry Milk) in PBS (phosphate buffered saline). The plate was incubated for 1 h at 37° C. in the dark. After washing with buffer T-PBS (PBS with 0.004% (v/v) Tween detergent), the wells were filled with 100 μL of biotinylated-hGadd45β at concentrations ranging from 8.4 nM to 168 nM. Each data point was performed in triplicate. Following incubation for 1 hr in the dark at 37° C. the solutions were removed and the wells were again washed with T-PBS. Then 100 μL of a 1:10,000 dilution of horseradish peroxidase-conjugated streptavidin dissolved in buffer was added to each well and the plate incubated for 1 hr at 37° C. in the dark. After removal of the enzyme solution and washing, 100 μL of the chromogenic substrate o-phenylendiamine (0.4 mg/mL in 50 mM sodium phosphate-citrate buffer, containing 0.4 mg/mL of urea in hydrogen peroxide) was added and the colour was allowed to develop in the dark for 5 min. The reaction was stopped by adding 50 μL of 2.5 M H2SO4. The absorbance at 490 nm was measured in all wells and the values were averaged after subtracting the corresponding blanks. Bound protein was then detected as described above. The molar concentration of biotinylated-hGadd45β at which the half-maximal ELISA signal is detected corresponds to the dissociation constant (KD) (Friguet B, Chaffotte A F, Djavadi-Ohaniance L, Goldberg M E. J Immunol Methods. 1985 Mar. 18; 77 (2):305-19). Binding competition assays were performed by coating GST-MKK7 at 42 nM as described, a concentration of biotinylated-hGadd45β of 21 nM (pre-saturation conditions 1:0.5 mol/mol ratio) and, in a first test, using competitors at 21 nM. The binding of biotinylated hGadd45β to GST-MKK7 was analyzed in the presence of increasing amounts of competitor peptide (concentrations ranging from 0.01 nM to 100 nM), and the values obtained with the competitor were expressed as the percentage of the binding detected in the absence of competitor. […] According to the convention adopted in the table “L-Xaa” and “D-Xaa” refer to the L and D forms of amino acid Xaa.
# A simplified combinatorial peptide library (Marasco et al. 2008, Curr. Protein Pept. Sci. 9:447-67) was screened for antagonists of the Gadd45β/MKK7 interaction. This library contained a total of 12^4=20,736 different tetrapeptides formed by combinations of the following amino acid residues Gln (Q), Ser (S), Arg (R), Ala (A), Tyr (Y), Pro (P), Met (M), Cys (C), Phe (F), Leu (L), His (H), Asp (D), and was iteratively deconvoluted in four steps by ELISA competition assays using at each step coated MKK7 (42 nM), soluble-biotin-hGadd45β (21 nM) and each of the 12 sub-libraries (42 nM).
row,Compound,% Inhibition of Gadd45β-MKK7 binding [%]
1,Fmoc(βAla)2-YDHD-NH2 ({Fmoc-βAla-βAla}-YDHD-NH2; SMILES NC(=O)[C@H](CC(=O)O)NC(=O)[C@H](Cc1c[nH]cn1)NC(=O)[C@H](CC(=O)O)NC(=O)[C@H](Cc1ccc(O)cc1)NC(=O)CCNC(=O)CCNC(=O)OCC1c2ccccc2-c2ccccc21),0
2,Fmoc(βAla)2-YDHF-NH2 ({Fmoc-βAla-βAla}-YDHF-NH2),99
3,Fmoc(βAla)2-YDHH-NH2 ({Fmoc-βAla-βAla}-YDHH-NH2; SMILES NC(=O)[C@H](Cc1c[nH]cn1)NC(=O)[C@H](Cc1c[nH]cn1)NC(=O)[C@H](CC(=O)O)NC(=O)[C@H](Cc1ccc(O)cc1)NC(=O)CCNC(=O)CCNC(=O)OCC1c2ccccc2-c2ccccc21),40
4,Fmoc(βAla)2-YDHL-NH2 ({Fmoc-βAla-βAla}-YDHL-NH2; SMILES CC(C)C[C@H](NC(=O)[C@H](Cc1c[nH]cn1)NC(=O)[C@H](CC(=O)O)NC(=O)[C@H](Cc1ccc(O)cc1)NC(=O)CCNC(=O)CCNC(=O)OCC1c2ccccc2-c2ccccc21)C(N)=O),33
5,Fmoc(βAla)2-YDHM-NH2 ({Fmoc-βAla-βAla}-YDHM-NH2; SMILES CSCC[C@H](NC(=O)[C@H](Cc1c[nH]cn1)NC(=O)[C@H](CC(=O)O)NC(=O)[C@H](Cc1ccc(O)cc1)NC(=O)CCNC(=O)CCNC(=O)OCC1c2ccccc2-c2ccccc21)C(N)=O),14
6,Fmoc(βAla)2-YDHP-NH2 ({Fmoc-βAla-βAla}-YDHP-NH2; SMILES NC(=O)[C@@H]1CCCN1C(=O)[C@H](Cc1c[nH]cn1)NC(=O)[C@H](CC(=O)O)NC(=O)[C@H](Cc1ccc(O)cc1)NC(=O)CCNC(=O)CCNC(=O)OCC1c2ccccc2-c2ccccc21),16
7,Fmoc(βAla)2-YDHR-NH2 ({Fmoc-βAla-βAla}-YDHR-NH2; SMILES N=C(N)NCCC[C@H](NC(=O)[C@H](Cc1c[nH]cn1)NC(=O)[C@H](CC(=O)O)NC(=O)[C@H](Cc1ccc(O)cc1)NC(=O)CCNC(=O)CCNC(=O)OCC1c2ccccc2-c2ccccc21)C(N)=O),2
8,Fmoc(βAla)2-YDHS-NH2 ({Fmoc-βAla-βAla}-YDHS-NH2; SMILES NC(=O)[C@H](CO)NC(=O)[C@H](Cc1c[nH]cn1)NC(=O)[C@H](CC(=O)O)NC(=O)[C@H](Cc1ccc(O)cc1)NC(=O)CCNC(=O)CCNC(=O)OCC1c2ccccc2-c2ccccc21),0
9,Fmoc(βAla)2-YDHY-NH2 ({Fmoc-βAla-βAla}-YDHY-NH2; SMILES NC(=O)[C@H](Cc1ccc(O)cc1)NC(=O)[C@H](Cc1c[nH]cn1)NC(=O)[C@H](CC(=O)O)NC(=O)[C@H](Cc1ccc(O)cc1)NC(=O)CCNC(=O)CCNC(=O)OCC1c2ccccc2-c2ccccc21),63

# Same assay, conditions: Table III, modified peptides
row,Compound,% Inhibition of Gadd45β-MKK7 binding [%]
1,Fmoc-YDFQ-NH2 (SMILES NC(=O)CC[C@H](NC(=O)[C@H](Cc1ccccc1)NC(=O)[C@H](CC(=O)O)NC(=O)[C@H](Cc1ccc(O)cc1)NC(=O)OCC1c2ccccc2-c2ccccc21)C(N)=O),19
2,Fmoc-YDHF-NH2,58
3,Fmoc-YERF-NH2,60
4,Myr-YDHF-NH2 (Myristoyl-YDHF-NH2),26
5,Myr-YDHQ-NH2 (Myristoyl-YDHQ-NH2),28
6,Myr-YERF-NH2 (Myristoyl-YERF-NH2),37
7,Z-YD(OMe)HF-NH2 (Cbz-YD(OMe′)HF-NH2),84
8,Z-YD(OMe)HQ-NH2 (Cbz-YD(OMe′)HQ-NH2),3
9,Z-YDHQ-NH2 (Cbz-YDHQ-NH2),13
